Test results taken from publication PMC2148051, “Crystal structures of Leptospira interrogans FAD-containing ferredoxin-NADP^+ reductase and its complex with NADP^+” (BMC Structural Biology, 2007).

Legend:
LepFNR [1] = molecular target: T1, LepFNR (Leptospira interrogans, UniProt Q8EY89); test: X-ray crystal structure, […] Å; assay type: binding; conditions: noncovalently bound prosthetic group, extended conformation
T1 construct: gene LA_4327; expressed in E. coli (pET32JO-LepFNR) as thioredoxin fusion, thioredoxin removed with thrombin; FAD holoenzyme; C-terminal residue Tyr314

P. sativum FNR = molecular target: T2, P. sativum FNR (Lathyrus oleraceus, UniProt P10933); test: difference absorption spectroscopy titration; assay type: binding; conditions: read-out: Kd (μM, NADP^+)
T2 construct: gene PETH; plastidic enzyme
T2 sequence (P10933 53-360): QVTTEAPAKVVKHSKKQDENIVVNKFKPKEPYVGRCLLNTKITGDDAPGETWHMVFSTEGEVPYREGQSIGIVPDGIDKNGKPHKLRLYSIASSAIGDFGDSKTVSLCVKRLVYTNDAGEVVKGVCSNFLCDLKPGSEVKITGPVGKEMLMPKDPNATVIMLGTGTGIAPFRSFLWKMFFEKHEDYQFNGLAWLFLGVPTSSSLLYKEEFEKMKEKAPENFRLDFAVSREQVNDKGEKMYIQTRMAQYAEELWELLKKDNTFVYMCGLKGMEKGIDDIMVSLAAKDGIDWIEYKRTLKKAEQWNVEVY
Description: difference absorption spectroscopy titration on P. sativum FNR

LepFNR [2] = molecular target: T1, LepFNR; test: difference absorption spectroscopy titration; assay type: binding
Description: difference absorption spectroscopy titration on LepFNR

[3] = tested on: NC(=O)C1=CN([C@@H]2O[C@H](COP(=O)(O)OP(=O)(O)OC[C@H]3O[C@@H](n4cnc5c(N)ncnc54)[C@H](OP(=O)(O)O)[C@@H]3O)[C@@H](O)[C@H]2O)C=CC1; test: purified protein; conditions: 1 mM potassium ferricyanide, NADPH regenerated with glucose-6-phosphate dehydrogenase, 50 mM Tris-HCl, pH 8, 30°C
purified protein = substrate: NC(=O)C1=CN([C@@H]2O[C@H](COP(=O)(O)OP(=O)(O)OC[C@H]3O[C@@H](n4cnc5c(N)ncnc54)[C@H](OP(=O)(O)O)[C@@H]3O)[C@@H](O)[C@H]2O)C=CC1; test: purified protein; assay type: biochemical, Lathyrus oleraceus; conditions: 1 mM potassium ferricyanide, NADPH regenerated with glucose-6-phosphate dehydrogenase, 50 mM Tris-HCl, pH 8, 30°C

T1 sequence (Q8EY89 entry or part of it): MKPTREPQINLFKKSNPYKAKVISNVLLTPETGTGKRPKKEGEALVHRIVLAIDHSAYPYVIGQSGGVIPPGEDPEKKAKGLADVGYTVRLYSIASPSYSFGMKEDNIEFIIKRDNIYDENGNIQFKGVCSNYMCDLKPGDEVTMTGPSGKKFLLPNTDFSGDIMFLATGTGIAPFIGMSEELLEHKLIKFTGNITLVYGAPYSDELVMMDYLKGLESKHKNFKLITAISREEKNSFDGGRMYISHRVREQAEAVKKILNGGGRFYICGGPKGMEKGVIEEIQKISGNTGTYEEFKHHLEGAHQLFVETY

In the case of `Cc1cc2nc3c(=O)[nH]c(=O)nc-3n(C[C@H](O)[C@H](O)[C@H](O)COP(=O)(O)OP(=O)(O)OC[C@H]3O[C@@H](n4cnc5c(N)ncnc54)[C@H](O)[C@@H]3O)c2cc1C` [FAD], the “X-ray crystal structure, 2.43 Å” value (LepFNR [1]) is reported as “LepFNR accommodates the FAD molecule in an extended conformation between the two enzyme domains”.

Work on `NC(=O)c1ccc[n+]([C@@H]2O[C@H](COP(=O)(O)OP(=O)(O)OC[C@H]3O[C@@H](n4cnc5c(N)ncnc54)[C@H](OP(=O)(O)O)[C@@H]3O)[C@@H](O)[C@H]2O)c1` [NADP^+] yielded a Kd (P. sativum FNR) of 32 ± 2 µM and a Kd (LepFNR [2]) of 43 ± 3 µM.

Work on “LepFNR (Leptospira interrogans serovar Lai str. 56601)” yielded a Km [3] of 19.5 ± 1.7 µM, a kcat [3] of 258 ± 13 s⁻¹ and a kcat/Km [3] of 1.32e+07 M⁻¹ s⁻¹.

B1: P. sativum FNR (Lathyrus oleraceus) (protein)
chain: QVTTEAPAKVVKHSKKQDENIVVNKFKPKEPYVGRCLLNTKITGDDAPGETWHMVFSTEGEVPYREGQSIGIVPDGIDKNGKPHKLRLYSIASSAIGDFGDSKTVSLCVKRLVYTNDAGEVVKGVCSNFLCDLKPGSEVKITGPVGKEMLMPKDPNATVIMLGTGTGIAPFRSFLWKMFFEKHEDYQFNGLAWLFLGVPTSSSLLYKEEFEKMKEKAPENFRLDFAVSREQVNDKGEKMYIQTRMAQYAEELWELLKKDNTFVYMCGLKGMEKGIDDIMVSLAAKDGIDWIEYKRTLKKAEQWNVEVY
notes: plastidic enzyme
Molecule B1 has a Km (purified protein) of 19.0 ± 1.6 µM, a kcat (purified protein) of 324 ± 16 s⁻¹ and a kcat/Km (purified protein) of 1.71e+07 M⁻¹ s⁻¹.
